The record followed here is US9266930.

Like-named read-outs stand apart in the source and are kept apart here.

Experiment [1] has as its target HLA-A*2401 (as the column head of Table X prints it), purified HLA class I molecule (human). The experiment in a line: competition with 125I-labelled standard peptide for purified HLA, gel filtration. For orientation: In gel filtration, larger molecules generally elute earlier.
For experiment [2], the target named is T1, HLA-DR3 (DRB1*0301) (human).
T1 chain 1: not shown
T1 chain 2: not shown

Experiment [3] has as its target T2, HLA-DR6w19 (DRB1*1302) (human).
T2 chain 1: not shown
T2 chain 2: not shown

Experiment [4] has as its target T3, HLA-DR1 (DRB1*0101) (human).
T3 chain 1: not shown
T3 chain 2: not shown

For experiment [5] the target is unchanged.
Experiment [6] concerns the target T4, HLA-DR2w2β2 (DRB5*0101) (human).
T4 chain 1: not shown
T4 chain 2: not shown

Experiment [7] deals with T1, HLA-DR3 (DRB1*0301) (human).
Experiment [8] has as its target T5, HLA-DR4w15 (DRB1*0405) (human).
T5 chain 1: not shown
T5 chain 2: not shown

Experiment [9] addresses T6, HLA-DR4w4 (DRB1*0401) (human).
T6 chain 1: not shown
T6 chain 2: not shown

Experiment [10] addresses T7, HLA-DR5w11 (DRB1*1101) (human).
T7 chain 1: not shown
T7 chain 2: not shown

Experiment [11] addresses T8, HLA-DR2w2β1 (DRB1*1501) (human).
T8 chain 1: not shown
T8 chain 2: not shown

Experiment [12] addresses HLA-B*0702 (Human).
The next experiment addresses HLA-A*6802 (human). Kind of experiment: competition with 125I probe peptide for purified HLA, gel filtration.
The next experiment has as its target HLA-A*0203 (human). The description is as above.
Experiment [13] addresses T3, HLA-DR1 (DRB1*0101) (human). Kind of experiment: inhibition of 125I-probe peptide binding to purified HLA-DR, gel filtration.
Experiment [14] deals with T4, HLA-DR2w2β2 (DRB5*0101) (human). Described as above.
In experiment [15] the target is T1, HLA-DR3 (DRB1*0301) (human). The experiment is described as above.
For experiment [16], the target named is T5, HLA-DR4w15 (DRB1*0405) (human). Described as above.
Experiment [17] has as its target T6, HLA-DR4w4 (DRB1*0401) (human). Described as above.
Experiment [18] concerns the target T7, HLA-DR5w11 (DRB1*1101) (human). The experiment is described as above.
The target of experiment [19] is T8, HLA-DR2w2β1 (DRB1*1501) (human). Described as above.
For experiment [20], the target named is HLA-A*3301 (human). Kind of experiment: competition with 125I-labeled probe peptide for purified HLA, gel filtration. The settings on record: scale: ratio.
The target in experiment [21] is HLA-A*6801 (human). The experiment is described as above. The settings on record: scale: ratio.
In experiment [22] the target is HLA-A*1101 (human). The description is as above. The settings on record: scale: ratio.
For experiment [23], the target named is HLA-A*0301 (human). The experiment is described as above. The settings on record: scale: ratio.
Another experiment has as its target HLA-B*5401 (human). Kind of experiment: competition with 125I probe peptide for purified HLA, gel filtration.
Experiment [24] concerns the target HLA-B*0702 (human). The description is as above.
The next experiment concerns the target HLA-B*3501 (human). The experiment is described as above.
Experiment [25] addresses HLA-A*1101 (human).
In experiment [26] the target is HLA-A*6801 (human).
Experiment [27] concerns the target HLA-A*3101 (human).
Experiment [28] concerns the target HLA-A*3301 (human). The experiment in a line: competition with 125I-labelled standard peptide for purified HLA, gel filtration.
Experiment [29] deals with HLA-A*1101 (human). Described as above.
The target in experiment [30] is HLA-A*3101 (human). Described as above.
In experiment [31] the target is HLA-A*0301 (human). The description is as above.
The target of experiment [32] is HLA-A*1101 (Human). Kind of experiment: competition with 125I-labelled probe peptide for purified HLA-A*1101.
For experiment [33], the target named is HLA-DR5w11 (DRB1*1101) (human). The experiment in a line: competition with 125I-labeled probe peptide on purified HLA-DR, gel filtration.
Experiment [34] concerns the target HLA-DR2w2β2 (DRB5*0101) (human). Described as above.
Experiment [35] deals with T6, HLA-DR4w4 (DRB1*0401) (human). The experiment is described as above.
The target of experiment [36] is HLA-DR1 (DRB1*0101) (human). The experiment is described as above.
In experiment [37] the target is HLA-DR4w15 (DRB1*0405) (human). Described as above.
Experiment [38] addresses HLA-A*6801 (human). The experiment in a line: competition with 125I-labelled standard peptide for purified HLA, gel filtration.
Experiment [39] deals with T9, HLA-DR5w12 (DRB1*1201) (human).
T9 chain 1: not shown
T9 chain 2: not shown

In experiment [40] the target is T2, HLA-DR6w19 (DRB1*1302) (human).
In experiment [41] the target is T10, HLA-DR9 (DRB1*0901) (human).
T10 chain 1: not shown
T10 chain 2: not shown

For experiment [42], the target named is T11, HLA-DR7 (DRB1*0701) (human).
T11 chain 1: not shown
T11 chain 2: not shown

Turning to KYLVIVFLIF (modifications not checked) [… (Pf SSP2 position 8, 10-mer)], the binding affinity ratio (IC50 of standard peptide / IC50 of test peptide) in experiment [1] came out at 0.0003.
The IC50 is the concentration at which inhibition is half-maximal. With KCNLYADSAWENVKN (modifications not checked) [35.0172 … (Pf SSP2 211)], the figures for the 50% inhibitory concentration (IC50) in experiment [2], in experiment [3] and in experiment [4] were 857 nM, 11100 nM and 23400 nM, respectively.
As to VFFLALFFIIFNKES (modifications not checked), the binding affinity ratio (relative binding) (ratio to standard peptide) in experiment [5] is 0.0006; in experiment [6], -0.0021; in [7], -0.0043; in experiment [8], 0.01; in experiment [9], 0.0047; in experiment [10], -0.0005. The binding affinity ratio (relative binding) (ratio to standard peptide) in experiment [11] was determined as 0.018.
As for VPLAMKLI (modifications not checked) [VPLAMKLI (P. falciparum SSP2, position 69)], the binding affinity ratio (IC50 of standard peptide / IC50 of test peptide) with HLA-B*0702 (Human) [12] came out at 0.0001.
Regarding ILSVSSFLFV (modifications not checked) [1167.18], the IC50 with HLA-A*6802 (human) amounted to 2100 nM; with HLA-A*0203 (human) it was 19 nM.
As to RHPFKIGSSDPADNA (modifications not checked), the binding affinity ratio (relative binding) (ratio to standard peptide) in experiment [13] was 0.0044; in experiment [14] it was -0.0005; in experiment [15], -0.0008; in [16], 0.0029; in [17], 0.47; in experiment [18] it was 0.0056. In addition, the binding affinity ratio (relative binding) (ratio to standard peptide) in experiment [19] was -0.0004.
For the molecule VSSKKKNKK (modifications not checked) [… (P. falciparum EXP, position 33, 9 amino acids)], the binding affinity ratio (relative to standard peptide) with HLA-A*3301 (human) [20] turned out to be 0.001; with HLA-A*6801 (human) [21], 0.0002; with HLA-A*1101 (human) [22], 0.0002; in the experiment with HLA-A*0301 (human) [23], 0.0001.
TPYAGEPAPF (modifications not checked) [1167.61]: the concentration for half-maximal inhibition (IC50) with HLA-B*5401 (human) amounted to 25000 nM; in the experiment with HLA-B*0702 (human) [24], 31 nM.
LPYGRTNL (modifications not checked) [19.0051] showed an IC50 with HLA-B*3501 (human) above 30000 nM.
For the molecule GTGSGVSSKK (modifications not checked) [… (P. falciparum EXP-1, position 28)], the binding affinity ratio (IC50 of standard peptide / IC50 of test peptide) in the experiment with HLA-A*1101 (human) [25] is 0.034.
NANANNAVK (modifications not checked) [… (P. falciparum CSP, position 335)]: the binding affinity ratio (IC50 of standard peptide / IC50 of test peptide) came out at 0.021 with HLA-A*6801 (human) [26] and 0.0006 with HLA-A*3101 (human) [27].
In the case of QSQDNNGNR (modifications not checked), the binding affinity ratio (IC50 of standard peptide / IC50 of test peptide) amounted to 0.0093 with HLA-A*3301 (human) [28], 0.0002 in the experiment with HLA-A*1101 (human) [29], 0.002 with HLA-A*3101 (human) [30] and 0.0005 in the experiment with HLA-A*0301 (human) [31].
For the molecule EALFQEYQCY (modifications not checked) [… (Pf CSP 17, A11 motif peptide)], the binding affinity ratio (IC50 of standard peptide / IC50 of test peptide) with HLA-A*1101 (Human) [32] was 0.0002.
For KLATSVLAGL (modifications not checked) [… (EXP position 75, 10 amino acids)], the binding affinity ratio (IC50 of standard peptide / IC50 of test peptide) with HLA-A*0201 (Human) worked out at 0.0047.
For PYAGEPAPF (modifications not checked) [… (Pf SSP2 position 528, 9-mer)], the binding affinity ratio (IC50 of standard peptide / IC50 of test peptide) in [1] was determined as 0.037.
Turning to ILSVFFLAL (modifications not checked) [… (EXP position 3, 9 amino acids)], the binding affinity ratio (IC50 of standard peptide / IC50 of test peptide) in the experiment with HLA-A*0201 (Human) was 0.0058.
For the molecule SCGVWDEWSPCSVTC (modifications not checked), the binding affinity ratio (IC50 standard peptide / IC50 test peptide) is -0.0002 in [33]; -0.0005 in experiment [34]; -0.0009 in experiment [35]; 0.0001 in [36]; -0.0009 in [37].
Consider YADSAWENVK (modifications not checked), for which the binding affinity ratio (IC50 of standard peptide / IC50 of test peptide) amounted to 0.0009 with HLA-A*3301 (human) [28], 0.0077 in the experiment with HLA-A*6801 (human) [38], 0.0002 with HLA-A*1101 (human) [29] and 0.0009 in the experiment with HLA-A*3101 (human) [30].
For the molecule VFNVVNSSIGLIMVL (modifications not checked) [… (Pf CSP DR-supermotif 15-mer, core …)], the binding affinity ratio (relative to standard peptide) in experiment [39] is 0.0015; in [40], 0.26; in experiment [41], 0.5; in [42], 0.18.
Turning to NPEDDREENF (modifications not checked) [… (P. falciparum SSP2, position 382)], the binding affinity ratio (IC50 of standard peptide / IC50 of test peptide) with HLA-B*0702 (Human) [12] amounted to 0.0001.
On to EDNEKLRKPK (modifications not checked) [… (Pf CSP 100, A11 motif peptide)], for which, in the experiment with HLA-A*1101 (Human) [32], the binding affinity ratio (IC50 of standard peptide / IC50 of test peptide) amounted to 0.0002.
